Test results published in the nanobody polyreactivity screen of Harvey et al. (2022).

Assay: yeast display, Sf9 membrane polyspecificity reagent, FACS + sequencing; frameworks hold sequencing errors
Summary of the method: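 A nanobody's polyreactivity label depends on the gate it was sorted from. Yeast display cells were stained with 10% biotinylated, detergent-solubilized Sf9 membrane reagent for 1 hour at 4 °C, enriched on streptavidin microbeads and sorted by FACS. The low and high (top ~1%) gates were set on anti-HA fluorescence for expression and streptavidin fluorescence for reagent binding.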

Sequence | polyreactivity (PSR sort gate)
QVQLVESGGGLFQAGGSLRLSCAASGRTFEINAMGWYRQAPGKERELVARISWSGGRTYYADSVKGRFTISRDNAKNTVYLQMNSLKPEDTAVYYCAAVLYSGGNYDSWGQGTQVTGSS | high polyreactivity
QVQLVESGGGLVQAGGSLRLSCAASGSTFYFYAMGWYRQAPGKERELVASITVRGGRTYCADSVKGRFTISRDNAKNTVYLQMNSLKPEDTAVYYCAENWSYRAYDYWGQGTQVTVSS | low polyreactivity
QVQLVESGGGLVQAGGSLRLSCAASGRIFGNNAMGWYRQAPGKERELVAAIRSRGTRTYYADSVKGRFTISRDNAKNTVYLQMNSLKPEDTAVYYCATTSLTGRYDRYDYWGQGTQVTVSS | high polyreactivity
QVQLVESGGGLVQAGGSLRLSCAASGRTFDYNTMGWYRPAPGKDRELVAAISASGGSTYYADSVKGRFTISRDNAKNTVYLQMNSLKPEDTAVYYCNTYAGVEYYHWGQGTQVTVSS | low polyreactivity
QVQLVESGGGLVQAGGSLRLSCAASGYIFENYALGWYRQAPGKERELVAALSTRGGSTYYADSVKGRFTISRDNAKNTVYLQMNSLKPEDTAVYYCAAADSTGYYYWGQGTQVTVSS | high polyreactivity
QVQLVESGGGIVQAGGSLRLSCAASGRTFRPYAMGWYRQAPGKERELVAAITSGGSTYYADSVKGRFTISRDNAKNTVYLQMNSLKPEDTAVYYCNAKYYYQPPYDYWGQGTQVTVSS | low polyreactivity
QVQLVESGGGLDQAGGSLRLSCAASGFIFRYYAMGWYRQAPGKERELVAAISRNGGSTYYADSVKGRFTISRDIAKNTVYLQMNSLKPEDTAVYYCAALTGRERYDYWGQGTQVTVSS | high polyreactivity
QVQLVESGGGLVQAGGILRLSCAASGRIFSRYVMGWYRQAPGKEREFVASITWSGSSTYYADSVKGRFTISRDNAKNTVYLQMNSLKPEDTAVYYCAALGLLSPSPWGTHISEYDSWGQGTQVTVSS | low polyreactivity
QVQLVESGGGLVQAGGSLRLSCAASGRTFGEYVMGGYRQAPGKERELVASISRRGGSTYYADSVKGRFTLSRDNAKNTVYVLMNSQNPEDTAVYYCAKYRTQWSKNLYPYGFDYWGHGTQVTVSS | low polyreactivity
QVQLVDSGGCLFQAGGTLRLSCAASGFTLRAYAMGWYRQGPGKEREFVAVISRSDGSTYYADTVKGRFTISRENAKNTVYLQMNSLKPEDSAVYYCADKHRGAKYDYWGQGTQVTVSS | low polyreactivity
QVQLVESGGGLVQAGGSLRLSCAASGRTFGYYAMGWYRQAPGKERELVAAITWIGGSTYADSVKGRFTISRDNAKNTVYLQMNSLKPEDTAVYYCAADPSVWSDYYYWGQGTQVTVSS | high polyreactivity
QVQLVESGGGLVQAGGSLRLSCAASGNIFSVYAMGWYRKAPGKERELVAAISSSGGRTYYADSVKGRFTISRDNEKNTVYLHMNSLKPEDTAVYYCAARSYTGQFVYWGQGTQVTVSS | high polyreactivity
QDQLVESVGGLVQAGGSLRLSCAASAITFGNYAMGWYRQAPGKERELVAGISWSGSSTYYADSVKGRFTISRDNSKNTVYLQMNSLKPEDTAVYYCNAVQPARFVGGFGTGVDYWGQGTQVTVSS | high polyreactivity
QVQLVESGGGLVQAGGSLRLSCAASGSTFSGYAMGWYRQAPGKERELVAGIRLDGSRTYYADSVKGRFTISRDNAKNTVYLQMNSLKPEDTAVYYCAAPSGTYWTRREYWGQGSQVTVSS | low polyreactivity
QDQLVESVGGLNQAGGSLRLSCAASGIIFYPYTIGWYRQAPGKERELVAAIRQSGTSTYYADSVKGRFTISRDNAKNTVYLQMNSLKPEDTAVYYCNVEPYQPPGHDRSYAYDYWGQGTQVTVSS | low polyreactivity
QVQLVESCGGLVQAGGSHRLSCAASGRTFRYYAMGWYRQAPWKERELVAAIRRGGSTTYADSVKVRFTISRDNAKNTVYLQMNSLKPEDTAVYYCAARYPGTRGDGYWGQGTQVTVSS | high polyreactivity
QVQLVESGGGLVQAGGSLRLSCAASGSIFAGYAMGWYRQAPGKERELVAAITSSGGSTYYADSVKGRFTISRDNAKNTVYLQMTSLKPEDTAVYYCAKDKLILYRVGSDYWGQGTQVTVSS | low polyreactivity
QVQLVESGGGLVQAGGSLRLSCAASGRIFGRNVMGWYRQAPGKERELVAAISWIGGSTSYADSVKGRFTISRDNAKNTVYLQMNSLKPEDTAVYYCAAKPYGYRHYWGYDYWGQGTQVTVSS | high polyreactivity
QVQLVESGGGLVQAGGSLRLSCAASGNTFGNYGMGWYRQAPGKEREFVAAITSRGTSSYYADSVKGRFTISRDNAKNTVYLQMNSLKPEDTAVYYCNARPRYKYPRYDYWGQGTQVTVSS | high polyreactivity
QVQLVESGGGLVQAGGSLRLSCAASGSTFRNNAMGWYRQAPGKERELVAAISWIGGDTYYADSVKGRFTISRDNAKNTVYLQMNSLKPEDTAVYYCNRDFVYWPWFKFDYWGQGTQVTVSS | low polyreactivity
QVQLVESGGGLVQAGGSLRLSCAASGRIFGSYAMGWYRQAPGKERELVAAISWRGTSTYYADSVKGRFTISRDNAKNTVYLQMNSLKPEDTAVYYCAARGLWPYDYWGQGTQVTVSS | low polyreactivity
QVHLVQTRGGLVQAGGSLRLSCAASGLTFTYYAMGWNRPEPGKERQLVSAISSSGSDTYYADSVKGRFTISRDYALNTVYFQMNSLKTEDTAVYYCAAVLTALSPDFEYEYWGQGTQVTVSS | low polyreactivity
